Laboratory results as given in patent US20230399393A1, “METHODS TO EXTEND HEALTH-SPAN AND TREAT AGE-RELATED DISEASES” (National University of Singapore, priority 2020, published 2023).

Columns and labels:
human hepatocytes [1] = assay: Increasing concentrations of IL-11 or IL-6, western blot p-LKB1/p-AMPK; type: cell-based; settings: 24 hours; 1.25-20 ng/ml, even at the highest concentration
Procedure: (§1) FIG. 23. Western blot image showing the levels of p-LKB1, LKB1, p-AMPK, AMPK in primary human hepatocytes or primary human hepatic stellate cells that are unstimulated (BL) or stimulated for 24 hours with increasing concentrations (1.25, 2.5, 5, 10 or 20 ng/ml) of IL-11 or IL-6.
(§2) Primary human hepatic stellate cells (HSCs) and human hepatocytes were stimulated for 24 hours with increasing concentrations (1.25-20 ng/ml) of IL-11 or IL-6. […] The effect of IL-11 on these markers is observable at concentrations as low as 1.25 ng/ml in both HSCs and hepatocytes.

[2] = tested on: Primary human hepatic stellate cells (HSCs); assay: as above; type: cell-based; settings: 24 hours; 1.25-20 ng/ml, even at the highest concentration
Procedure: as §1, §2

human hepatocytes [3] = assay: IL-11 stimulation in the presence of DMSO or U0126, western blot; type: cell-based; settings: IL-11 24 hours; U0126 10 μM
Procedure: (§3) FIG. 22. Western blot image showing the levels of p-ERK, ERK, p-P90RSK, P90RSK, p-LKB1, LKB1, p-AMPK, AMPK, p-mTOR, mTOR, p-p70S6K, p70S6K, p-S6RP, S6RP in primary human hepatocytes that are unstimulated (BL+DMSO) or stimulated for 24 hours with IL11 in the presence DMSO or U0126 (10 μM).
(§4) Primary human hepatic stellate cells and human hepatocytes were stimulated for 24 hours with IL-11 in the presence DMSO or U0126. As discussed in Example 4.4, the inventors observed that IL-11 treatment stimulates p-mTOR, p-70S6K and p-S6RP. In line with the inventors' hypothesis, administration of U0126 to IL-11-stimulated cells prevents ERK-mediated inactivation of LKB1/AMPK that stops IL11-induced mTORC1/P70S6K activation (FIG. 21 and FIG. 22, respectively).

[4] = tested on: Primary human hepatic stellate cells; assay: as above; type: cell-based; settings: IL-11 24 hours; U0126 10 μM
Procedure: as §3, with “FIG. 21.” for “FIG. 22.”, “p-S6RP, S6RP, SMA, and GAPDH” for “p-S6RP, S6RP”, “human hepatic stellate cells” for “human hepatocytes”
as §4

[5] = tested on: Primary human cardiac fibroblasts; assay: IL-11-stimulated fibroblasts with Rapamycin, Wortmannin or U0126, western blot; type: cell-based; settings: IL11 10 ng/ml 24 hours; Rapamycin 10 nM, Wortmannin 1 μM, U0126 10 μM
Procedure: FIG. 18. Western blot image showing the levels of p-LKB1, LKB1, p-AMPK, AMPK in primary human cardiac fibroblasts that are unstimulated (BL+DMSO) or stimulated with IL11 for 24 hours in the presence of either DMSO, Rapamycin, Wortmannin, or U0126. IL11(10 ng/ml), Rapamycin (10 nM), Wortmannin (1 μM), U0126 (10 μM).
Primary human cardiac fibroblasts were stimulated with IL-11 for 24 hours in the presence of either DMSO, Rapamycin (mTOR inhibitor), Wortmannin (phosphoinositide 3-kinases (PI3K) inhibitor), or U0126 (MEK1/2 inhibitor) and the levels of p-LKB1 and p-AMPK were measured by western blot (FIG. 18).

[6] = tested on: rheumatoid synovial cells; settings: upon treatment; cited from earlier work
[7] = tested on: Primary human hepatocytes; assay: Hepatocytes stimulated with IL-11, BSA or palmitate with X203, X209 or IgG, western blot; type: cell-based; settings: 24 hours; antibody 2 μg/ml; IL11 10 ng/ml or palmitate 0.5 mM
Procedure: FIG. 20. Western blot image showing the levels of p-ERK, ERK, p-P90RSK, P90RSK, p-LKB1, LKB1, p-AMPK, AMPK, p-Acetyl-CoA Carboxylase (p-ACC), Acetyl-CoA Carboxylase (ACC), p-mTOR, mTOR, p-p70S6K, p70S6K, p-S6RP, S6RP in primary human hepatocytes that are unstimulated (BL) or stimulated for 24 hours with either IL11, 0.5% BSA, or palmitate (saturated fatty acid) in the presence of X203, X209, or IgG (11E10) isotype control. IL11 (10 ng/ml), IgG/X203/X209 (2 μg/ml), palmitate (0.5 mM) conjugated in free BSA (0.5% BSA solution) in the ratio of 6:1.
Primary human hepatocytes (stimulated with IL-11, BSA or palmitate, or unstimulated) were treated with X203 (anti-IL-11 antagonist antibody) and X209 (anti-IL-11Rα antagonist antibody). […] Treatment with X203 or X209 essentially reverses the effect of palmitate stimulation on these markers to the levels observed in the unstimulated control.

AML12 [8] = assay: Senescence prevention experiment, qPCR at day 10; type: cell-based, mouse; settings: 2 μg/ml during recovery period, vs IgG
Procedure: FIG. 24. (24A) Schematic of senescence prevention experiment for data shown in B-F. Senescent AML12 were generated by treating the cells with a sub-lethal concentration of H2O2 (0.75 mM) for 1 hour, followed by 23 hours recovery per day, for 7 days as described by Tripathi et. al. (2020). IgG/X209 (2 μg/ml) was added into the cultures during the 23 hours recovery period for 10 days; cells were harvested at day 10 for RNA extraction and subsequent qPCR experiments. Relative mRNA expression of (24B) Cdkn2a (p16), (24C) Cdkn1a (p21), (24D) Il1β, (24E) Il8, and (24F) Il11.
Briefly, senescent AML12 were generated by treating the cells with a sub-lethal concentration of H2O2 as described by Tripathi et. al. (2020) STAR Protocols 1 (2): 100064. IgG/X209 (2 μg/ml) was added into the cultures during the 23 hours recovery period for 10 days. Relative mRNA expression of Cdkn2a (p16), Cdkn1a (p21), Il1β, Il8, and Il11, as measured by qPCR is shown in FIGS. 24B, 24C, 24D, 24E and 24F, respectively. Markers of senescence (P16 and p21) and markers of inflammation (IL-1b, IL-11 and […]) are diminished in cells that have undergone IL-11-mediated signalling antagonism by X209.
(§5) Senescent AML12 were generated by treating the cells with a sub-lethal concentration of H2O2 (0.75 mM) for 1 hour, followed by 23 hours recovery per day, for 7 days as described (Tripathi, Yen, and Singh 2020, STAR Protocols 1 (2): 100064). For prevention study, AML12 cells were treated with 2 ug/ml of either IgG or X209 during the recovery period of the senescence induction stage (from day 1 to day 7); cells were harvested for total RNA collection at day 10. For reversal study, senescence was first induced for seven days followed by 2 ug/ml of IgG, X203, or X209 treatment for 3 days; cells were harvested for total RNA collection at day 10.
(§6) Total RNA was extracted from AML12 or snap-frozen tissues using Trizol (Invitrogen) and RNeasy Mini Kit (Qiagen). […] using iScript cDNA Synthesis Kit (Biorad). Gene expression analysis was performed on duplicate samples with either TaqMan (Applied Biosystems) for Il11 (Mm00434162) or fast SYBR green (Qiagen) technology using StepOnePlus™ (Applied Biosystem) for Ccl2, Ccl5, Gapdh, Il1β, Il6, Il8, p16, p21, Tnfα, over 40 cycles. Expression data were normalized to GAPDH mRNA expression and fold change was calculated using 2^−ΔΔct method.

[9] = tested on: Primary human cardiac fibroblasts; assay: IL11 or TGFβ1 stimulated fibroblasts with X203, X209 or IgG, western blot; type: cell-based; settings: IL11/TGFβ1 10 ng/ml, 24 hours; antibody 2 μg/ml
Procedure: FIG. 19. Western blot image showing the levels of p-ERK, ERK, p-P90RSK, P90RSK, p-LKB1, LKB1, p-AMPK, AMPK, p-mTOR, mTOR, p-p70S6K, p70S6K, p-S6RP, S6RP, SMA, and GAPDH in primary human cardiac fibroblasts that are unstimulated (BL) or stimulated for 24 hours with either IL11 or TGFβ1 in the presence of X203, X209, or IgG (11E10) isotype control. IL11/TGFβ1 (10 ng/ml), IgG/X203/X209 (2 μg/ml).
Primary human cardiac fibroblasts were stimulated with IL11 or TGFβ1, or unstimulated (BL).

AML12 cells = assay: In vitro model of senescence induction, qRT-PCR at day 7; type: cell-based, mouse; settings: 2 ug/ml from day 2, H2O2 0.75 mM, vs isotype-matched control IgG
Procedure: Senescent hepatic mouse cells were generated from cells of the mouse hepatocyte cell line AML12 as described in Tripathi et al., Star Protocols (2020) 1:100064 (hereby incorporated by reference in its entirety).
Briefly, AML12 cells were grown to 50% confluency and senescence was induced by treating the cells with a sub-lethal concentration of H2O2 (0.75 mM) for 1 h, followed by 23 h recovery per day, for a total of 7 days (as described in Tripathi et al., Star Protocols (2020) 1:100064). From day 2 onwards, 2 ug/ml of X209/X203 or isotype-matched control IgG was added to the cultures during the 23h recovery period.
Total RNA was isolated at day 7, and levels of p21 (Cdkn1a), […], Il11 and Tgfb gene expression were evaluated by qRT-PCR. Briefly, total RNA was extracted from cell lysates using Trizol (Invitrogen) followed by RNeasy column (Qiagen) purification. cDNAs were synthesized with iScript™ cDNA synthesis kit (Bio-Rad) according to manufacturer's instructions. Gene expression analysis was performed with either TaqMan (Applied Biosystems) or fast SYBR green (Qiagen) using the StepOnePlus Real-Time PCT System (Applied Biosystems) over 40 cycles. Expression data for p21 (Cdkn1a), Il1b, Il11 and Tgfb were normalised to Gapdh expression, and fold change was calculated using the 2^−ΔΔCt method.

AML12 [10] = assay: Senescence reversal experiment, qPCR at day 10; type: cell-based, mouse; settings: 2 μg/ml for 72 hours after 7 days senescence induction; vs IgG
Procedure: FIG. 25. (25A) Schematic of senescence reversal experiment for data shown in B-D. Senescent AML12 were generated for 7 days as described above. IgG/X203/X209 (2 μg/ml) was added into the cultures at the end of senescence induction period for 72 hours; cells were harvested at day 10 for RNA extraction and subsequent qPCR experiments. Relative mRNA expression of (25B) Cdkn1a (p21), (25C) Il1β, and (25D) Il11.
Briefly, senescent AML12 were generated for 7 days as described above, but IgG/X203/X209 (2 μg/ml) was added into the cultures at the end of senescence induction period for 72 hours.
as §5, §6

Q: Which “inactivation of LKB1 or activation of AMPK” value (human hepatocytes [1]) does the source give for “IL-6: cytokine used as comparator stimulus to IL-11” here?
A: does not induce

Q: What about the “inactivation of LKB1 or activation of AMPK” value [2] of the same molecule?
A: does not induce

Q: With `N#CC(=C(/N)Sc1ccccc1N)/C(C#N)=C(\N)Sc1ccccc1N` [U0126] as the molecule, how does the “ERK-mediated inactivation of LKB1/AMPK” value (human hepatocytes [3]) read?
A: prevents

Q: What about the “IL11-induced mTORC1/P70S6K activation” value (human hepatocytes [3]) of the same molecule?
A: stops

Q: And the “ERK-mediated inactivation of LKB1/AMPK” value [4]?
A: prevents

Q: And the “IL11-induced mTORC1/P70S6K activation” value [4]?
A: stops

Q: What about the “level of p-AMPK” value [5] of the same molecule?
A: increases

Q: And the “level of p-LKB1” value [5]?
A: decreases

Q: With `COc1ccc2c(c1)c(CC(=O)O)c(C)n2C(=O)c1ccc(Cl)cc1` [indomethacin, reference compound] as the molecule, how does the “expression of IL-11” value [6] read?
A: reduction

Q: With “interferon-gamma: interferon-gamma (IFNγ)” as the molecule, how does the “expression of IL-11” value [6] read?
A: reduction

B1: X209: mouse anti-mouse IL-11Rα IgG antagonist antibody; VH SEQ ID NO:24, VL SEQ ID NO:25 (antibody, V domains shown)
VH: QVQLQQPGAELVRPGSSVKLSCKASGYTFTNYWMHWLKQRPVQGLEWIGNIGPSDSKTHYNQKFKDKATLTVDKSSSTAYMQLNSLTSEDSAVYYCARGDYVLFTYWGQGTLVTVSA
VL: DIVLTQSPATLSLSPGERATLSCRASQSISNNLHWYQQKSHEAPRLLIKYASQSISGIPARFSGSGSGTDFTLSFSSLETEDFAVYFCQQSYSWPLTFGQGTKLEIK
Q: Which “levels of p-AMPK and p-ACC” value [7] does the source give for B1 here?
A: increase

Q: And the “levels of phosphorylated markers p-ERK, p-p90RSK, p-LKB1, p-mTOR, p-p70S6K and p-S6RP” value [7]?
A: reduces

Q: What about the “marker of inflammation IL-1b mRNA” value (AML12 [8]) of the same molecule?
A: diminished

Q: What about the “marker of inflammation IL-6” value (AML12 [8]) of the same molecule?
A: diminished

Q: What about the “marker of inflammation IL-11 mRNA” value (AML12 [8]) of the same molecule?
A: diminished

Q: And the “marker of senescence P16 (Cdkn2a) mRNA” value (AML12 [8])?
A: diminished

Q: And the “marker of senescence p21 (Cdkn1a) mRNA” value (AML12 [8])?
A: diminished

Q: What about the “level of phosphorylation of markers ERK, p90RSK, LKB1, mTOR, p70S6K and S6RP” value [9] of the same molecule?
A: significantly reduce

Q: And the “gene expression of Il11” value (AML12 cells)?
A: significantly reduce

Q: What about the “gene expression of Il11b” value (AML12 cells) of the same molecule?
A: significantly reduce

Q: What about the “gene expression of Tgfb” value (AML12 cells) of the same molecule?
A: significantly reduce

Q: What about the “gene expression of p21 (Cdkn1a)” value (AML12 cells) of the same molecule?
A: significantly reduce

Q: What about the “inflammation marker IL-1 b” value (AML12 [10]) of the same molecule?
A: significantly reduce

Q: And the “inflammation marker IL-11” value (AML12 [10])?
A: significantly reduce

Q: What about the “senescence marker p21” value (AML12 [10]) of the same molecule?
A: significantly reduce
